# Assay results from patent publication US20230407373A1 (priority 2020, published 2023).
# Where two headings read alike, the source gives them in different places.
# Tests used:
# Format in all cases: binding
# SARS-CoV-2 gRNA = settings: […]; LC-MS/MS; Probe I sample (first 199 lines of Table 2)
# [1] = test system: SARS-CoV-2 gRNA and sgRNAs; settings: for background (unweighted spectral count in control): no-probe control pull-down, used as background for Probe II; for target (unweighted spectral count in RNP capture): Probe II capture, LC-MS/MS LFQ
# gRNA of HCoV-OC43 = settings: for target (spectral count) / background (spectral count): type g_36_m, 36 hpi, Probe I; for target (spectral count): HCoV-OC43-infected HCT-8 cells; for background (spectral count): uninfected-probe control; for target (spectral count, OC43 Probe I RNP capture) / background (spectral count, no-probe control): type n_48_v: 48 hours post-infection; for target (spectral count, OC43 Probe I RNP capture): infected cells, unweighted spectral count; for background (spectral count, no-probe control): no-probe control on infected cells
# HCoV-OC43 gRNA and sgRNA = settings: for target (unweighted spectral count, OC43 Probe II capture) / target (spectral count) / background (spectral count): 36 hpi; for target (unweighted spectral count, OC43 Probe II capture): type n_36_v, FDR<10%; for target (unweighted spectral count, OC43 Probe II capture) / target (unweighted spectral count): tested against no-probe control; for target (unweighted spectral count): OC43 Probe II, infected cells; for target (unweighted spectral count, OC43 Probe II) / background (unweighted spectral count, no-probe control): type n_48_v, 48 hpi; for target (unweighted spectral count, OC43 Probe II): OC43 Probe II capture on infected cells; for background (unweighted spectral count, no-probe control): no-probe control on infected cells; for target (spectral count) / background (spectral count): type s_36_m, Probe II; for target (spectral count): HCoV-OC43-infected HCT-8 cells; for background (spectral count): uninfected-probe control
Molecule,target (unweighted spectral count of the protein in the RNP capture) (SARS-CoV-2 gRNA),background (unweighted spectral count in control) [1],target (spectral count) (gRNA of HCoV-OC43),background (spectral count) (gRNA of HCoV-OC43),"target (spectral count, OC43 Probe I RNP capture) (gRNA of HCoV-OC43)","background (spectral count, no-probe control) (gRNA of HCoV-OC43)","target (unweighted spectral count, OC43 Probe II capture) (HCoV-OC43 gRNA and sgRNA)",target (unweighted spectral count) (HCoV-OC43 gRNA and sgRNA; 12 hpi (type n_12_v)),"target (unweighted spectral count, OC43 Probe II) (HCoV-OC43 gRNA and sgRNA)","background (unweighted spectral count, no-probe control) (HCoV-OC43 gRNA and sgRNA)",target (spectral count) (HCoV-OC43 gRNA and sgRNA),background (spectral count) (HCoV-OC43 gRNA and sgRNA),target (unweighted spectral count in RNP capture) [1],target (unweighted spectral count) (HCoV-OC43 gRNA and sgRNA; 24 hpi (type n_24_v))
"RBM47: host protein, UniProt A0AV96 (protein, UniProt A0AV96 1-593, looked up) RNA-binding protein 47: MTAEDSTAAMSSDSAAGSSAKVPEGVAGAPNEAALLALMERTGYSMVQENGQRKYGGPPPGWEGPHPQRGCEVFVGKIPRDVYEDELVPVFEAVGRIYELRLMMDFDGKNRGYAFVMYCHKHEAKRAVRELNNYEIRPGRLLGVCCSVDNCRLFIGGIPKMKKREEILEEIAKVTEGVLDVIVYASAADKMKNRGFAFVEYESHRAAAMARRKLMPGRIQLWGHQIAVDWAEPEIDVDEDVMETVKILYVRNLMIETTEDTIKKSFGQFNPGCVERVKKIRDYAFVHFTSREDAVHAMNNLNGTELEGSCLEVTLAKPVDKEQYSRYQKAARGGGAAEAAQQPSYVYSCDPYTLAYYGYPYNALIGPNRDYFVKAGSIRGRGRGAAGNRAPGPRGSYLGGYSAGRGIYSRYHEGKGKQQEKGYELVPNLEIPTVNPVAIKPGTVAIPAIGAQYSMFPAAPAPKMIEDGKIHTVEHMISPIAVQPDPASAAAAAAAAAAAAAAVIPTVSTPPPFQGRPITPVYTVAPNVQRIPTAGIYGASYVPFAAPATATIATLQKNAAAAAAMYGGYAGYIPQAFPAAAIQVPIPDVYQTY",12,1,28,5,26,2,31,10,27,2,31,6,–,–
"HNRNPA0 (protein, UniProt Q13151 1-305, looked up) Heterogeneous nuclear …: MENSQLCKLFIGGLNVQTSESGLRGHFEAFGTLTDCVVVVNPQTKRSRCFGFVTYSNVEEADAAMAASPHAVDGNTVELKRAVSREDSARPGAHAKVKKLFVGGLKGDVAEGDLIEHFSQFGTVEKAEIIADKQSGKKRGFGFVYFQNHDAADKAAVVKFHPIQGHRVEVKKAVPKEDIYSGGGGGGSRSSRGGRGGRGRGGGRDQNGLSKGGGGGYNSYGGYGGGGGGGYNAYGGGGGGSSYGGSDYGNGFGGFGSYSQHQSSYGPMKSGGGGGGGGSSWGGRSNSGPYRGGYGGGGGYGGSSF",12,1,–,–,12,2,12,–,13,2,–,–,9,–
"HNRNPH1 (protein, UniProt P31943 1-449, looked up) Heterogeneous nuclear …: MMLGTEGGEGFVVKVRGLPWSCSADEVQRFFSDCKIQNGAQGIRFIYTREGRPSGEAFVELESEDEVKLALKKDRETMGHRYVEVFKSNNVEMDWVLKHTGPNSPDTANDGFVRLRGLPFGCSKEEIVQFFSGLEIVPNGITLPVDFQGRSTGEAFVQFASQEIAEKALKKHKERIGHRYIEIFKSSRAEVRTHYDPPRKLMAMQRPGPYDRPGAGRGYNSIGRGAGFERMRRGAYGGGYGGYDDYNGYNDGYGFGSDRFGRDLNYCFSGMSDHRYGDGGSTFQSTTGHCVHMRGLPYRATENDIYNFFSPLNPVRVHIEIGPDGRVTGEADVEFATHEDAVAAMSKDKANMQHRYVELFLNSTAGASGGAYEHRYVELFLNSTAGASGGAYGSQMMGGMGLSNQSSYGGPASQQLSGGYGGGYGGQSSMSGYDQVLQENSSDFQSNIA",78,1,–,–,49,6,36,15,53,6,–,–,61,–
"TIAL1: host protein, UniProt Q01085 (protein, UniProt Q01085 1-375, looked up) Nucleolysin TIAR: MMEDDGQPRTLYVGNLSRDVTEVLILQLFSQIGPCKSCKMITEHTSNDPYCFVEFYEHRDAAAALAAMNGRKILGKEVKVNWATTPSSQKKDTSNHFHVFVGDLSPEITTEDIKSAFAPFGKISDARVVKDMATGKSKGYGFVSFYNKLDAENAIVHMGGQWLGGRQIRTNWATRKPPAPKSTQENNTKQLRFEDVVNQSSPKNCTVYCGGIASGLTDQLMRQTFSPFGQIMEIRVFPEKGYSFVRFSTHESAAHAIVSVNGTTIEGHVVKCYWGKESPDMTKNFQQVDYSQWGQWSQVYGNPQQYGQYMANGWQVPPYGVYGQPWNQQGFGVDQSPSAAWMGGFGAQPPQGQAPPPVIPPPNQAGYGMASYQTQ",10,1,–,–,11,1,9,–,11,1,9,1,25,7
"RBM14: host protein, UniProt Q96PK6 (protein, UniProt Q96PK6 1-669, looked up) RNA-binding protein 14: MKIFVGNVDGADTTPEELAALFAPYGTVMSCAVMKQFAFVHMRENAGALRAIEALHGHELRPGRALVVEMSRPRPLNTWKIFVGNVSAACTSQELRSLFERRGRVIECDVVKDYAFVHMEKEADAKAAIAQLNGKEVKGKRINVELSTKGQKKGPGLAVQSGDKTKKPGAGDTAFPGTGGFSATFDYQQAFGNSTGGFDGQARQPTPPFFGRDRSPLRRSPPRASYVAPLTAQPATYRAQPSVSLGAAYRAQPSASLGVGYRTQPMTAQAASYRAQPSVSLGAPYRGQLASPSSQSAAASSLGPYGGAQPSASALSSYGGQAAAASSLNSYGAQGSSLASYGNQPSSYGAQAASSYGVRAAASSYNTQGAASSLGSYGAQAASYGAQSAASSLAYGAQAASYNAQPSASYNAQSAPYAAQQAASYSSQPAAYVAQPATAAAYASQPAAYAAQATTPMAGSYGAQPVVQTQLNSYGAQASMGLSGSYGAQSAAAATGSYGAAAAYGAQPSATLAAPYRTQSSASLAASYAAQQHPQAAASYRGQPGNAYDGAGQPSAAYLSMSQGAVANANSTPPPYERTRLSPPRASYDDPYKKAVAMSKRYGSDRRLAELSDYRRLSESQLSFRRSPTKSSLDYRRLPDAHSDYARYSGSYNDYLRAAQMHSGYQRRM",9,1,20,2,19,2,14,5,17,2,–,–,10,–
"EWSR1: host protein, UniProt Q01644 (protein, UniProt Q01844 1-656, looked up) RNA-binding protein EWS: MASTDYSTYSQAAAQQGYSAYTAQPTQGYAQTTQAYGQQSYGTYGQPTDVSYTQAQTTATYGQTAYATSYGQPPTGYTTPTAPQAYSQPVQGYGTGAYDTTTATVTTTQASYAAQSAYGTQPAYPAYGQQPAATAPTRPQDGNKPTETSQPQSSTGGYNQPSLGYGQSNYSYPQVPGSYPMQPVTAPPSYPPTSYSSTQPTSYDQSSYSQQNTYGQPSSYGQQSSYGQQSSYGQQPPTSYPPQTGSYSQAPSQYSQQSSSYGQQSSFRQDHPSSMGVYGQESGGFSGPGENRSMSGPDNRGRGRGGFDRGGMSRGGRGGGRGGMGSAGERGGFNKPGGPMDEGPDLDLGPPVDPDEDSDNSAIYVQGLNDSVTLDDLADFFKQCGVVKMNKRTGQPMIHIYLDKETGKPKGDATVSYEDPPTAKAAVEWFDGKDFQGSKLKVSLARKKPPMNSMRGGLPPREGRGMPPPLRGGPGGPGGPGGPMGRMGGRGGDRGGFPPRGPRGSRGNPSGGGNVQHRAGDWQCPNPGCGNQNFAWRTECNQCKAPKPEGFLPPPFPPPGGDRGRGGPGGMRGGRGGLMDRGGPGGMFRGGRGGDRGGFRGGRGMDRGGFGGGRRGGPGGPPGPLMEQMGGRRGGRGGPGKMDKGEHRQERRDRPY",9,1,–,–,8,1,9,–,10,1,9,1,7,6
"CNBP: host protein, UniProt P62633 (protein, UniProt P62633 2-177, looked up) CCHC-type zinc finger nucleic …: SSNECFKCGRSGHWARECPTGGGRGRGMRSRGRGGFTSDRGFQFVSSSLPDICYRCGESGHLAKDCDLQEDACYNCGRGGHIAKDCKEPKREREQCCYNCGKPGHLARDCDHADEQKCYSCGEFGHIQKDCTKVKCYRCGETGHVAINCSKTSEVNCYRCGESGHLARECTIEATA",74,1,15,2,22,2,14,5,19,2,–,–,44,12
